In the DeepSol protein solubility set:

Experiment: soluble on expression in E. coli; label from the status in PepcDB or PDB records

| Sequence | soluble on expression in E. coli |
| --- | --- |
| GAMQGEVSKAASADSTTEGTPADGFTVLSTKSLFLGQKLQVVQADIASIDSDAVVHPTNTDFYIGGEVGNTLEKKGGKEFVEAVLELRKKNGPLEVAGAAVSAGHGLPAKFVIHCNSPVWGADKCEELLEKTVKNCLALADDKKLKSIAFPSIGSGRNGFPKQTAAQLILKAISSYFVSTMSSSIKTVYFVLFDSESIGIYVQEMAKLDAN | soluble |
| GCSDGGREALVAAQRYPDDFNGIIAGAPALNFQVQKTLYHGWMARSNIGPDGKPILLASRLPLLHKAVLAKCDVLDGQIDGLIADPRLCNFDPASVQCTSSVDTTNCLTQQEVAVVKRFYEGPKDPDSGERLTVGGPQPGSELGWAGVFVPITAEQTVYSEKAASEAIRNMVFENNPVAGFDLSTLRFDKSTFDKLRPLHPLYDATNPDLAPFASRGGKLILWHGWADPNVSPLNTLAYHEAVEAKLGKARTEAFESLYMLPGVYHCGAGEGPSVIDLLTPMMAWVESNHAPD | not soluble |
| GDLVGPGCAEYAAANPTGPASVQGMSQDPVAVAASNNPELTTLTAALSGQLNPQVNLVDTLNSGQYTVFAPTNAAFSKLPASTIDELKTNSSLLTSILTYHVVAGQTSPANVVGTRQTLQGASVTVTGQGNSLKVGNADVVCGGVSTANATVYMIDSVLMPPA | soluble |
| GDSQDFSSSQSTSPVVHHRPIDQIALSTFEDTTPLKTDEVEQAWEHTQITYVDLRTGAHLGSGAERLARASLSLSKLYIADYVFDHGTQKEKEQAVEMIRKSDDDIADKLFDAYPNCIDSVAKKYQLEATQTYGRWG | not soluble |
| GDYERILYELEGMYQFGKRSHLDISAFSIASGVGYQLPLPMNPQFWLRYDFASGDKNHRDGRSNTFNQLFPFGHYYFGYIDQVGRQNIHDFNAQFTLHPQPWVTFLGQYHRFYLANKRDYLYNAAGAGTIRDITGQSGSHVGDEIDFTINFHLSRHQDVLLGYSKLFTGEFLKNTRPGVSPDLFYAQYNFRF | not soluble |
| GEEDLCAAFNVICDNVGKDWRRLARQLKVSDTKIDSIEDRYPRNLTERVRESLRIWKNTEKENATVAHLVGALRSCQMNLVADLVQEVQQARDLQNRSGAMSPMSWNSDASTSEASHHHHHH | soluble |
| GEITSAYFVCREATLQKLAAMQSIDSEQKLSALFEGSSQIISLFDRDSRFVWYNKAAYDKSIFLFGKFLCVGERFDSYLKEQYREGFNANFERVLKGEIVSYTREYTYQDKPFFLEIMLQPVYQKDELVGVSLIGNN | not soluble |
| GELDPVVTWGTTPGQGIGIDDPIPEPEDLADDKVDTARRAQKHMRVEPGETMEGYDIDVAFLGSCTNARLPDLRRAARIVKGREVADDVRAFVVPGSQRVQRAAEEEGLKDIFEEAGFEWRNAGCSMCLGMNEDQLEGDEACASSSNRNFVGRQGSKDGRTVLMNPRMVAAAAITGEVSDVRDLKEVTLA | not soluble |
| GETQPESAAFTAPSTDNPIRINFNENPLGMSPKAQAAARDAVVKANRYAKNEILMLGNKLAAHHQVEAPSILLTAGSSEGIRAAIEAYASLEAQLVIPELTYGDGEHFAKIAGMKVTKVKMLDNWAFDIEGLKAAVAAYSGPSIVYLVNPNNPTGTITPADVIEPWIASKPANTMFIVDEAYAEFVNDPRFRSISPMITQGAENIILLKTFSKIHAMAGMRVGYAVAHPTVIALMGRYVAGEKINFSGVDAALASMNDSAFITYSKKSNDVSRQILLKALEDLKLPYLPSEGNFVFHQLVVPLKDYQTHMADAGVLIGRAFPPADNWCRISLGTPQEMQWVADTMREFRKKSWI | soluble |
| GFNPIIGTGISYKLSKKWSLAAEAFYSRRKVTYTSEVKDQNYIDRNTIIINNNPVTFEVSTTFTGTTKGEFDIHYLEFPLLAQYAIGNNWQIHAGMYYSWAFSKTNKGTATGIIGRTDISNPNTVTDKEYNYSKEVNSRYYGFVAGAQYQLSPAVALDLRATYSCKSLYKEDWEGVPYTLKDLYVQFTVKYFFIRAKD | not soluble |
| GGGGGGMADLFSTVQEKVAGKDVKIVFPEGLDERILEAVSKLAGNKVLNPIVIGNENEIQAKAKELNLTLGGVKIYDPHTYEGMEDLVQAFVERRKGKATEEQARKALLDENYFGTMLVYKGLADGLVSGAAHSTADTVRPALQIIKTKEGVKKTSGVFIMARGEEQYVFADCAINIAPDSQDLAEIAIESANTAKMFDIEPRVAMLSFSTKGSAKSDETEKVADAVKIAKEKAPELTLDGEFQFDAAFVPSVAEKKAPDSEIKGDANVFVFPSLEAGNIGYKIAQRLGNFEAVGPILQGLNMPVNDLSRGCNAEDVYNLALITAAQAL | soluble |
| GGGGGGMLNRVFLEGEIESSCWSVKKTGFLVTIKQMRFFGERLFTDYYVIYANGQLAYELEKHTKKYKTISIEGILRTYLERKSEIWKTTIEIVKIFNPKNEIVIDYKEI | soluble |
| GGGGSSGGSTGGGSGSGPVTIEIGSKGEELAFDKTELTVSAGQTVTIRFKNNSAVQQHNWILVKGGEAEAANIANAGLSAGPAANYLPADKSNIIAESPLANGNETVEVTFTAPAAGTYLYICTVPGHYPLMQGKLVVN | soluble |
| GGKDYPFARFNKTVQVPVYSEQEYQLYLHDDAWTKAETDHLFDLSRRFDLRFVVIHDRYDHQQFKKRSVEDLKERYYHICAKLANVRAVPGTD | soluble |
| GGRGGFGGRGGFGGRGGFG | soluble |
| GHHDKRFKAFIAHDGIFNMEMQYLETEEKWFANWDMGGAYWEKQNPTAQRTFANSPHLFVEKWDTPILCIHGEKDYRILANQAMAAFDAAVMRGVPAELLIYPDENHWVLKPQNGVLWQRTFFEWLDQWLKPN | not soluble |
| GHMAIQRRIRRVKTVQMTTNSPIHRSGSVLEPGNWQEYDPFLLLMEDIFERGTFDVHPHRGIETVTYVISGELEHFDSKAGHSTLGPGDVQWMTAGRGVVHKEDPASGSTVHSLQLWVNLPSAYKMTEPRYQNLRSKDMPVRKEEGATIRVFSGSSKGVKAPTKNIVPVTMVEMIVEPGTTVVQDLPGHYNGFLYILEGSGVFGADNIEGKAGQALFFSRHNRGEETELNVTAREKLRLLLYAGEPVNEPVVAYGPFVMNTPEQIREAIRDYQEGRFGR | soluble |
| GHMKQSHFFAHLSRLKLINRWPLMRNVRTENVSEHSLQVAMVAHALAAIKNRKFGGNVNAERIALLAMYHDASEVLTGDLPTPVKYFNSQIAQEYKAIEKIAQQKLVDMVPEELRDIFAPLIDEHAYSDEEKSLVKQADALCAYLKCLEELAAGNNEFLLAKTRLEATLEARRSQEMDYFMEIFVPSFHLSLDEISQDSPL | soluble |
| GHMSDLVTKFESLIISKYPVSFTKEQSAQAAQWESVLKSGQIQPHLDQLNLVLRDNTFIVSTLYPTSTDVHVFEVALPLIKDLVASSKDVKSTYTTYRHILRWIDYMQNLLEVSSTDKLEINHD | soluble |
| GHRVWIMYAQPYQVTLQEQQQELAQLEMARSALDSLSELICLQDCQGNLLTTNRAFDQFWEGRREEAITATASRVATRKSERKWTTDTQGRSCLLEVNLSSLVSPS | not soluble |
| GHWNQPWKCLVDHDGVFDNRMMGYATEELWFSEWENGGTPWENPAGYEQFNPVLHVDKWRVPMLVIHGQKDFRIPVEQGLAAFGALQRKGIESKLLYFHDENHWVLNPQNSIQWHDTVNAWLKKYIG | not soluble |
| GIDIELQMLGERLLEGKIGSIVAIEPSTGEILCMVSAPTFDPRLMVGRQRGKNHLELARDSWKPLLNRSIMGQFPPGSTFKTTQALTFLQEGIITPQTAYSCYHGFVYAGLRVGCHSHGSPLPLVPAIATSCNGYFCWGLFHMIGAKKKYGSVQTAMNTWRDYMVSMGFGYPLGVDLPGEKRGMIPNAAYYDKNYRGSWNGLTIISISIGQGEVTATPLQIANLGATIANRGYYITPHVVKEVEDEPLDTLYTTKRYTKVSREHYQTVVEGMRSAVLGGTCRNANIPGIEVCGKTGTAQNRGKDHSAFMGFAPMNDPKIAVVVYVENGGWGATYGVPIGALIMEKYLKGELSPESEAKAAEIQNRRIDYGIHER | not soluble |
| GIDPFTFENATSDAINQDMMLYIERIAKIIQKLPKRVHINVRGFTDDTPLVKTRFKSHYELAANRAYRVMKVLIQYGVNPNQLSFSSYGSTNPIAPNDSLENRMKNNRVEIFFSTDANDLSKIHSILDNEFNPHKQQE | soluble |
